The values below come from the supplement of paper PMC9942255.

The test system of the series is Bacillus subtilis DB104 (SP-AmyQ fusion secretion). The series can be described thus: AmyQ secretion efficiency, weighted average sort bin (1 = best secretion, 10 = worst) (bin number (weighted average, 1-10)); higher = lower secretion efficiency. The procedure, abridged:
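With fluorescein-starch as substrate, a B. subtilis DB104 library expressing mature AmyQ fused to designed signal peptides (integrated at amyE) was encapsulated at about 0.3 cells per ~65 nL alginate bead. After about 13 h at room temperature, beads were nile red stained, and occupied beads were sorted by large-particle flow cytometry into 10 equally populated bins by green/red fluorescence ratio. Illumina sequencing of the amplicons in each bin was used to calculate the secretion score, which is the read-frequency-weighted average bin number, normalised to beads per bin, with low-abundance sequences left out.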

As for MGLGKKLSVAVAASFMSLSISLVSVQAAEG, the AmyQ secretion efficiency amounted to 1.37.
Under MRPVFPLILSAVLFLSCFFAATVFFASASKR stands 7; under MKKIVSILFMFGLVMGFSQFQPSTVFAASP, 1.65.
As for MRKKRTIFAFLTGLMMFGTITAASASPD, the figure is 4.56; as for MMIGQCVICLSLLVFGTTAAHAEET, 4.07.
With MKRIRIPMTLALGAALTIAPLSFQSAEEN, the AmyQ secretion efficiency was determined as 6.97.
Under MKKRFSLIMMTGLLFGLTEEEAFAAEK stands 2.39.
As to MKKKQVMLALTAAAGLGLTALHPGPSAKAAPL, the AmyQ secretion efficiency was found to be 1.84.
Under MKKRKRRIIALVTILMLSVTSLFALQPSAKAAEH stands 2.06.
Under MTLSVIIAGVLTVAAAAMTAKMYATAKGN stands 6.67; under MTMLRKIIGWILLLCIIPLFAFTVIASSKEV, 6.98; under MKKALTLCPAIVGSLLFFTAPASAHVS, 2.41.
As for MKTLRTLCVLMILSGVIFFGLKIDADDD, the figure is 6.82; as for MMKKLFHSTLRKLLFFSFFGVQPIHAKKQ, 7.14; as for MKKRLIAPMLLSAASLAFFAMSGSAQNAAY, 8.43.
In the case of MNKPTKLFSTLALAAGMTEDEAGGAGTIHAQQP, the AmyQ secretion efficiency was 2.79.
As for MRPVFPLILSAVLFLSCFFGARQTEFSASKR, the figure is 7.3; as for MKSAKSVSALTPSTTLAITAKAKEL, 6.91.
As for MRKKLKWLSFLLGFIILLFLFKYQFSPNDS, the figure is 6.63.
Under MMTAIIIAIIAAVIVIAALITFNVRNASPG stands 6.42.
In turn, MKKVMLATALFLPAGANAADL registered an AmyQ secretion efficiency of 7.34.
MKVLLSALLLLLFAFFEPSASGKKL displayed an AmyQ secretion efficiency of 6.51.
As for MKLKSKLLLSCLALSTVFVATTIANAPTR, the figure is 6.08; as for MPYLKRVLLLLVTGLFMSLFAVTATASHQTG, 1.34.
In turn, MMSTIMSFVAVAALSTTAFGAHASAKEI returned an AmyQ secretion efficiency of 4.72.
As for MLKKKWMVGLLAGCLAAGGFSYNKFATEN, the figure is 7.42; as for “MKLWMRKTLVVLFTIVTFGLVIATFTTVAVSPPAALMADKP”, 4.44; as for MKKRITYSGSQLLAVVAFAFTDSSKAKAAEA, 8.92.
Under MIKLVLCVSILAVILSGVALTQLS stands 7.36; under MMIKQCVICLSLLVFGTEDEEEEAHAEET, 6.81.
As for MKKIMSAFVGMVLLTIFCVSTLTFSPQASAAYD, the figure is 4.76; as for MKSKGSIMACLILFSFTITTVTFINTETISAFSN, 5.25; as for MKKLLAAGIIGLLTVSIASPSFSAEK, 3.02.
MKRKLLSSLAISALSLGLLVSAPTALFAAES registered an AmyQ secretion efficiency of 2.49.
MSKAAAVLLSLGLVFGFSYGAGHVAEAKTK showed an AmyQ secretion efficiency of 2.88.
Under MLMSIALTLCPAIVGSLLFFTAPASAHVS stands 4.17; under MAIIIAIIAAVIVIAALITFNVRNHSPG, 6.69.
Consider MFKIMSAFVGMVLLTIFCFSPQASAAYD, for which the AmyQ secretion efficiency was 3.33.
Under MNKPTKGFSTLALAAGSTAAAAGGAGTIHAQQP stands 8.05.
Under MFNRLFRVCFLAALIMAFTLPNSVVTSVYAQKP stands 2.32; under MRGKSAVLLSLIMLIAGFLIEFSFQM, 8.38; under MKRLLVSLRVWMVFLMNWVTPDRKTAAAAEE, 6.3.
Take MKLRKVLTGSVLSLGLLKRRRKKAFATSP: the AmyQ secretion efficiency was 5.35.
Under MKKTIMSFVAVAALSTTAFGAHLSAKEI stands 2.5; under MLCVMMLLFSAIASFPVSAQLKDQ, 6.33; under MIKVLMAFIICLSLILSVLAAPPSGAKAESV, 1.52.
Under MRNLTKTSLLLAGLCTAAQMVFVTHASSEES stands 4.13; under MRKKLKWLSFLLGFIILLFLFKYQFSNNKR, 5.8; under MAIIIAIIAAVIVIAALITFNVRNWSPG, 8.18.
Under MKKIMIFLTSFMLLAMTGQTALAKDV stands 3.4; under MRKRLFRVCFLAALIMAFTLPNSVYAQKP, 2.73.
MLCVMMLLFSAIASFPVSASATAQAKDQ: the AmyQ secretion efficiency came out at 5.05.
Under MKKKQVSHARSTKTRRQFVIAVFHTIHASELTP stands 8.17; under MKRLLVSLRVWMVFLMNWVTPDRKTAAAAKK, 7.3.
As for MSTIWIGMLAAAVLLLMVPKVSLADAA, the figure is 6.21; as for MGRIKTKITILLVLLLLLAGGYWYIN, 6.88.
Under MKNMSCKLVVSVTLFFSFLTIGPLHHAQNS stands 5.75.
With MKRLLVSLRVWMVFLMNWVTPDRKTHAAAVY, the AmyQ secretion efficiency amounted to 6.55.
Under MKRFILVLSFLSIIVAYPIQTNASPE stands 2.06.
Under MRKKTKNRLISSVLSTVVISSLLFPQEAGASSK stands 1.83.
Under MLCVMMLLFSAIASFPVSAQTKDQ stands 6.25; under MLKKVILAAFILVGSTLGRKSFSSKASAKHV, 6.14.
Regarding MKRLFMKASLVLFAVVFVFAVKGAPAKADEE, the AmyQ secretion efficiency came to 2.81.
Under MKVLLSALLLLLFALVALSFEPSASGKKL stands 3.74; under MPIKKKVMMCLAVTLVFGSMDEETLTNSGGFKE, 6.94; under MRSYIKVKKKCRLGLILFVPTALADNS, 6.78.
Under MGMKKKLSLGVASAALGLALVGGGQWAAFN stands 5.94.
Under MKKAFLVFLSVVLVTTVFLVKQQESVDQAKQL stands 5.67; under MHLIRAAGAVCLAVVLIAGCRFNEDQHQFFAEGENT, 4.63.
For the sequence MKKAFILSAAAAVGLFTFTSVVGASAKEL, the AmyQ secretion efficiency amounted to 4.32.
Under MITTIVITCVMAASLTLGSLLPAGYASAKED stands 4.06.
Under MAIIIAIIAAVIVIAALITFNVRNYSPG stands 7.13.
Sequence MKWMCSICCAAVLLAGGAIQAEAV registered an AmyQ secretion efficiency of 2.58.
Under MKKIWIGMLAAAVLLLRKPKVSLADAA stands 7.91; under MKLSVKIAGVLTVAAAAMEDDMYATAKGN, 6.49.
Under MKKLCVMMLLFSAIASFPVSAQAKDQ stands 2.86.
For MLKKKWMVGLLAGCLAAGGFSYNAFMTEN, the AmyQ secretion efficiency was found to be 6.25.
Under MKKLALTAAAGLGLTALHSAPAAKAAPL stands 3.02.
Under MKKAAAVLLSLGGFSYGAGHVAEAKTK stands 6.38; under MPIKKKVMMCLAVTLVFGSMSFPTLTNSGFFKE, 4.32; under MKRIRIPMTLALGAALTIAPLDKASAEEN, 3.1.
Under MKKLSLGVASAALGLALVGGGTWAAFN stands 6; under MRGTSVVGFLSVLGLAAVFPLTAQAEKA, 2.91; under MTKKAWFLPLVCVLLIEEEEEEAASASAQTT, 6.12.
Sequence MKKWMITIAMLKKAGIALFVFISPLKSHKT yielded an AmyQ secretion efficiency of 6.51.
As for MKLSVKIAGVLTVAAAAMTAKMYATWKGN, the figure is 7.14; as for MLKRTSFVSSLFIFMAVLLIILTLPSGQAHAQSA, 1.9; as for MKKAAAVLLSLGLVFGFSYGAGHVAEAAED, 3.87.
Turning to MKKRLIAPMLLSAASLAFFAMSGSAQAAEE, the AmyQ secretion efficiency turned out to be 2.23.
Under MKKWMITIAMLILAGIALFVFIRKLKSHKT stands 7.72; under MKRIRIPMTLALGAALTIAPLSFASLEEN, 6.43; under MNRLFMKASLVLFAVVFVFAVKGAPAKAETH, 1.75.
Under MKSKWMSGLLLVAVGFSFTQVMVHWGET stands 5.88.
Under MKVLLSALLLLLFAEDEEEEASGKKL stands 5.86; under MGMKKKLSLGVASAALGLALVGGGTWKAFN, 5.21.
As to MKIRKILLMMALFFMMLISAVPALAAGT, the AmyQ secretion efficiency came to 2.45.
Under MTMLRKIIGWILLLCIIPLFAFTVIASFKEV stands 6.97.
Under MNKPTKLFSTLALAAGMTAAAAGGAGTCHAQQP stands 1.79; under MNLRKILLSSALSLGMLVSAAPYLATSS, 5.88; under MKKWMAGLFLAAAVLLCLMVPQQIQGKKK, 4.71.
Under MGMTSNLSLGVASAALGLALVGGGTWAAFN stands 8.22.
In turn, MKTKTLFIFSAILTLSIRKPNRTFAQTA showed an AmyQ secretion efficiency of 6.8.
MRMLWRSLALCGLALTLAICIAQAAEP: the AmyQ secretion efficiency worked out at 4.76.
MMGKGLLAGALTATVLFGTCAVDVPGIISPKTAEAASQ showed an AmyQ secretion efficiency of 1.48.
Under MKVPKTMLLSTAAGLLLSLDEDSVSAHYV stands 6.39; under MRKSLITLGLASVISIIVFLIAFTSKTASAETL, 2.48; under MKSKWMSGLLLVAVGFSFTQVMGHAGET, 5.88.
As for MNFKKTVVSALSISALALEEEDEDASAHEI, the figure is 6.1; as for MFNRLFRVCFLAALIMAFTLPNSVYYQKP, 6.22.
